Reference: article PMC10457771
Where “and” joins values, the source holds several entries; their conditions need not be identical. Equal entries are not always repeated.

Assays:
[1] = molecular target: central baseplate organization protein, gp11 (Vibrio phage XM1); assay: cryo-EM structure; purified XM1 virions in SM buffer; 6-fold-symmetric reconstruction of the distal part of the extended tail (baseplate, part of tail tube and sheath), 3.2Å; interfaces analysed with PISA
[2] = molecular target: collar spike protein, gp40 (Vibrio phage XM1); assay: cryo-EM structure; purified XM1 virions in SM buffer; 6-fold-symmetric reconstruction of the portal and neck region and 12-fold-symmetric reconstruction of the portal, 3.6Å; interfaces analysed with PISA
[3] = molecular target: dodecameric head completion protein, gp1 (Vibrio phage XM1); assay: as above
[4] = molecular target: hexameric head completion protein, gp4 (Vibrio phage XM1); assay: as above
[5] = molecular target: major capsid protein (MCP), gp54 (Vibrio phage XM1); assay: cryo-EM structure; purified XM1 virions in SM buffer; icosahedrally averaged reconstruction of the capsid, 3.2Å
[6] = molecular target: minor capsid protein (decoration protein, Dec), gp53 (Vibrio phage XM1); assay: as above
[7] = molecular target: portal protein, gp49 (Vibrio phage XM1); assay: cryo-EM structure; purified XM1 virions in SM buffer; 6-fold-symmetric reconstruction of the portal and neck region and 12-fold-symmetric reconstruction of the portal, 3.6Å; interfaces analysed with PISA
[8] = molecular target: tail sheath protein, gp6 (Vibrio phage XM1); assay: cryo-EM structure; empty XM1 particles with contracted tail sheath (post-infection form); 6-fold-symmetric reconstruction, 9.1Å; models of the extended state fitted (Situs ddforge, Coot)
[9] = molecular target: tail sheath protein, gp6 (Vibrio phage XM1); assay: cryo-EM structure; purified XM1 virions in SM buffer; 6-fold-symmetric reconstruction of the distal part of the extended tail (baseplate, part of tail tube and sheath), 3.2Å; interfaces analysed with PISA
[10] = molecular target: tail terminator protein, gp5 (Vibrio phage XM1); assay: cryo-EM structure; purified XM1 virions in SM buffer; 6-fold-symmetric reconstruction of the portal and neck region and 12-fold-symmetric reconstruction of the portal, 3.6Å; interfaces analysed with PISA
[11] = molecular target: tail tube protein, gp7 (Vibrio phage XM1); assay: cryo-EM structure; purified XM1 virions in SM buffer; 6-fold-symmetric reconstruction of the distal part of the extended tail (baseplate, part of tail tube and sheath), 3.2Å; interfaces analysed with PISA

## central baseplate organization protein, gp11 (natural protein)
[1]
  stoichiometry N: 6

## collar spike protein, gp40 (natural protein)
[2]
  stoichiometry N: 3

## dodecameric head completion protein, gp1 (natural protein)
[3]
  stoichiometry N: 12

## hexameric head completion protein, gp4 (natural protein)
[4]
  stoichiometry N: 6

## major capsid protein (MCP), gp54 (natural protein)
[5]
  stoichiometry N: 6 and 5

## minor capsid protein (decoration protein, Dec), gp53 (natural protein)
[6]
  stoichiometry N: 3

## portal protein, gp49 (natural protein)
[7]
  stoichiometry N: 12

## tail sheath protein, gp6 (natural protein)
[8]
  stoichiometry N: 6
[9]
  stoichiometry N: 6

## tail terminator protein, gp5 (natural protein)
[10]
  stoichiometry N: 6

## tail tube protein, gp7 (natural protein)
[11]
  stoichiometry N: 6
